Tests used:
[1] = target: T1, Protein phosphatase 2A1 (PP2A1) (Homo sapiens, UniProt P67775); experiment: Protein phosphatase assay, TR-FRET detection with [Eu3+]GST-PDZ, inhibition experiments; format: biochemical; details: PP2A1 15 pM; substrate biotin-HRRAARYLEpSAV-OH; quenched after 60 min; condition Dilution
T1 construct: purchased Biomol Research Laboratories (Plymouth Meeting, Pa.)
Protocol: (§1) Assays were carried out in 96-well black, low binding, Microfluor2 plates (Dynex, Va.). Assay plates were read using a Victor^2V microplate analyzer (Perkin Elmer Wallac (Turku, Finland)), with 337 nm excitation. Fluorescence emission was measured at 665 nm for FRET signal and 615 nm for Eu^3+ chelate, and results are expressed as the ratio of fluorescence intensities, FI665nm/FI615 nm.
For the initial time courses, 20 μl of biotin-HRRAARYLEpSAV-OH (SEQ. ID No. 4) (100 nM in phosphatase buffer: 50 mM Tris, pH 7.4, 10% glycerol, 14 mM β-mercaptoethanol, 0.2 mg/ml BSA) was mixed with 20 μl of PP2A1 (2× in phosphatase buffer), and the reaction solution was incubated at 32° C. At different time points, 40 μl aliquots were quenched with […] of a 5×TR-FRET mixture of Cantharidic Acid (5 μM, [Eu^3+]GST-PDZ (1.6 nM), and [665]SA (15.6 nM) in PBSTB, for 60 min, at 25° C., and read.
For the inhibition experiments, 2 μl of inhibitor were added to 20 μl PP2A1 (30 pM in phosphatase buffer), and the reaction was initiated by addition of 20 μl of peptide substrate (100 nM in phosphatase buffer). The reaction was quenched after 60 min with the addition of 10 μl of 5×TR-FRET quenching/detection mixture, as described above. Background was measured from a reaction mixture with substrate, detection mixture and no enzyme.

[2] = target: T2, Porcine carboxypeptidase B (CPB) (Sus scrofa, UniProt P09955); experiment: Carboxypeptidase B assay, TR-FRET detection with [Eu3+]GST-PDZ, inhibition experiments; format: biochemical; details: CPB 100 pM; substrate biotin-HRRSARYLESSVR-OH; quenched after 30 min; condition Dilution
T2 construct: purchased Sigma (St. Louis, Mo.)
T2 sequence (P09955 111-416): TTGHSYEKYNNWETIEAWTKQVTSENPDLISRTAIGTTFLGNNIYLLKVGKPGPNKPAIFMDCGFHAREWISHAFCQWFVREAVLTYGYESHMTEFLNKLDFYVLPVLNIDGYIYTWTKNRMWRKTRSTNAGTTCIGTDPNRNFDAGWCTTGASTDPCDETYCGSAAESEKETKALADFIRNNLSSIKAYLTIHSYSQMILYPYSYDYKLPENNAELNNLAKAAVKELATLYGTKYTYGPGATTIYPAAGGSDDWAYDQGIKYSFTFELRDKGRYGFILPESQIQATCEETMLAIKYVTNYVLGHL
Protocol: as §1
For the initial time courses, 20 μl of biotin-HRRSARYLESSVR-OH (SEQ. ID No. 7), (100 nM in 10 mM phosphate, 150 mM NaCl, 0.05% tween-20, 0.1% BSA (PBSTB)) was mixed with 20 μl of CPB (2× in PBSTB), and the reaction quenched with 10 μl of a 5×TR-FET mixture of PCI (1 μM, [Eu^3+]GST-PDZ (6.25 nM), and [X1665]SA (62.5 nM) in PBSTB, for 60 min, at 25° C., and read.
For the inhibition experiments, 2 Ill of inhibitor was added to 20 μl CPB (200 pM in PBSTB), and the reaction was initiated by addition of 20 μl peptide substrate (100 nM in PBSTB). The reaction was quenched after 30 min with the addition of 10 μl of 5×TR-FRET quenching/detection mixture, as described above. Background was measured from a reaction mixture with substrate, detection mixture and no enzyme.

Biotin-…-OH [3] = experiment: TR-FRET, 4 nM product peptide plus 36 nM masked substrate biotin-…-NH2 (Asp-N pair); data not shown
Biotin-…-OH [4] = experiment: TR-FRET, 4 nM product peptide plus 36 nM masked substrate biotin-…pSAV-OH; optimal [Eu3+]GST-PDZ 0.3 nM and [XL665]SA 3.1 nM
Biotin-…-OH [5] = experiment: TR-FRET, 4 nM product peptide plus 36 nM masked substrate biotin-…-OH (carboxypeptidase B pair); data not shown
[6] = target: Porcine carboxypeptidase B (porcine) (UniProt P09955); experiment: cell-based or functional assay

T1 sequence (P63151 whole entry): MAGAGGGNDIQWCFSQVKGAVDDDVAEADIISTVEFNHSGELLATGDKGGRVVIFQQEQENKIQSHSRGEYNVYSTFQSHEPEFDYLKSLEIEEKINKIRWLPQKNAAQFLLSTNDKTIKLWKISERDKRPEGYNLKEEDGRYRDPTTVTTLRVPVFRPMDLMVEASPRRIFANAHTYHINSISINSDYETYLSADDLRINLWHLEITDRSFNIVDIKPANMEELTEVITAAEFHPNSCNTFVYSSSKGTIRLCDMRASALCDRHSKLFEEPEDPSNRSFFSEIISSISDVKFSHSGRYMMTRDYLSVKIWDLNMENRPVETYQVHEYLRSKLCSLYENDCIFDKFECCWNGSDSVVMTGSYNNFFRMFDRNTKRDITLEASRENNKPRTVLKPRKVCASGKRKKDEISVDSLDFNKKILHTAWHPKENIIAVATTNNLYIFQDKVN
T1 sequence (P30153 whole entry, further chain): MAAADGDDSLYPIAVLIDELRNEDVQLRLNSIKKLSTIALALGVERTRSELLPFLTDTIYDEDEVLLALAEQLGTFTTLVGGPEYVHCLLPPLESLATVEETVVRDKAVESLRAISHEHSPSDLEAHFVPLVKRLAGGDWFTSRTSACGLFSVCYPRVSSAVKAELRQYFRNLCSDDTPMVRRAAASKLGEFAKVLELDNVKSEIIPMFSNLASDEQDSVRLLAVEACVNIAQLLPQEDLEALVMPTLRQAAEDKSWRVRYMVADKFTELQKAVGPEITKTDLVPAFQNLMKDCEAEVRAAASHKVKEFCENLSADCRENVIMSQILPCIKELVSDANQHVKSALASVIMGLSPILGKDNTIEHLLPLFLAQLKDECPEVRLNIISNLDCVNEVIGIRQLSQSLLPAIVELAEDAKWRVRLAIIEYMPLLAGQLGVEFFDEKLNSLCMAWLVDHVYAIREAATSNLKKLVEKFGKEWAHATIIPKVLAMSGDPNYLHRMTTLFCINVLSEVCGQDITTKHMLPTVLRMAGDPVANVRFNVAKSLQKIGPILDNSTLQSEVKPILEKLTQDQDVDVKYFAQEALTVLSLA
T1 sequence (P67775 whole entry): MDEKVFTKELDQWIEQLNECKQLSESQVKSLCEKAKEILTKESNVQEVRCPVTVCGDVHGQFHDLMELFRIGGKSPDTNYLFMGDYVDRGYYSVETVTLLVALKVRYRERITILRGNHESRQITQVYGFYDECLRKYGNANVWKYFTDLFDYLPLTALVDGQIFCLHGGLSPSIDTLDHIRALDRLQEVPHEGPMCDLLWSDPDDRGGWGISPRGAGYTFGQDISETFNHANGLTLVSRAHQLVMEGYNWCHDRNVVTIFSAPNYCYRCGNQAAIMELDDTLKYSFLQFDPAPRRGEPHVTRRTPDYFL

CC1(C(=O)O)C2CCC(O2)C1(C)C(=O)O (stereo not shown) [Cantharidic Acid, cantharidic acid]
IC50 [1]: 56 nM

C=C1[C@@H](O)[C@@H]2O[C@]3(CC[C@H](/C=C/[C@@H](C)[C@@H]4CC(C)=C[C@@]5(O[C@H](C[C@@](C)(O)C(=O)O)CC[C@H]5O)O4)O3)CC[C@H]2O[C@@H]1[C@@H](O)C[C@H](C)[C@H]1O[C@@]2(CCCCO2)CC[C@H]1C [Okadaic Acid, okadaic acid]
IC50 [1]: 0.015 nM

PCI: potato carboxypeptidase inhibitor from Sigma; the abbreviation list calls it protein carboxypeptidase inhibitor (QQHADPICNKPCKTHDDCSGAWFCQACWNSARTCGPYVG)
IC50 [2]: 10 nM

[Eu3+]GST-PDZ (GST fused to PDZ module 3 of PSD-95, labeled with Eu3+ chelate ITC) (from UniProt P31016 300-402)
signal-to-background (Biotin-…-OH [3]): > 10 fold | signal-to-background (Biotin-…-OH [4]): > 10 fold | signal-to-background (Biotin-…-OH [5]): > 10 fold

potato carboxypeptidase inhibitor (from UniProt P01075 1-39)
IC50 (inhibition of CPB hydrolysis of biotin-…-OH, TR-FRET read-out) [6]: 10 nM
